Positions count from the first letter of the chain named. Names may count otherwise.
T1: FcgRIIaR (human, UniProt P12318 34-217)
T1 construct: extracellular domain; Allotype R131; also called FcγRIIa R; FcgRIIa type R; not shown: His tag attached to the C terminus
T1 sequence (looked up): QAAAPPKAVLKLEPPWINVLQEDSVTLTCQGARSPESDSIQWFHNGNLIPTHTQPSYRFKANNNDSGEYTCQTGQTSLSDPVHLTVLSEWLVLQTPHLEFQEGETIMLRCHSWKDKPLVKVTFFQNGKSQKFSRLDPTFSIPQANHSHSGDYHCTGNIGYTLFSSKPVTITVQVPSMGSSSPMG

T2: FcgRIIaH (human, UniProt P12318 34-217)
T2 construct: extracellular domain; Allotype H131; also called FcγRIIa H; FcgRIIa type H; not shown: His tag attached to the C terminus
T2 sequence (looked up): T1 sequence (looked up) with R134H

T3: FcgRIIb (human, UniProt P31994 43-217)
T3 construct: extracellular domain; also called FcγRIIb; CD32B; not shown: His tag attached to the C terminus
T3 sequence (looked up): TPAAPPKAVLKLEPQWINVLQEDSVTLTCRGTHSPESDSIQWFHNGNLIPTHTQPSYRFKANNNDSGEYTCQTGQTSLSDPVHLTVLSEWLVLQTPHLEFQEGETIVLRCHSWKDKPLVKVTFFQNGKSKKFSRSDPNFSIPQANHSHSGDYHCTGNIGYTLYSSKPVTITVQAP

B1: GpH7-TA7/GpH7-B78/GpL16-k0 (antibody, human IgG1, kappa)
heavy 1: QVQLVQSGAEVKKPGASVTVSCKASGYTFTDYEMHWIRQPPGEGLEWIGAIDPKTGDTAYSESFQDRVTLTADKSTSTAYMELSSLTSEDTAVYYCTRFYSYTYWGQGTLVTVSSASTKGPSVFPLAPSSKSTSGGTAALGCLVKDYFPEPVTVSWNSGALTSGVHTFPAVLQSSGLYSLSSVVTVPSSSLGTQTYICNVNHKPSNTKVDKKVEPKSCDKTHTCPPCPAPEYLWGPSVFLFPPKPKDTLMISRTPEVTCVVVDVSHEDPEVKFNWYVDGVEVHNAKTKPREEQYNATYRVVSVLTVLHQDWLNGKEYKCKVSNKALPAPIEKTISKAKGQPREPQVYTLPPSRKELTKNQVSLTCLVKGFYPSDIAVEWESNGQPENNYKTTPPVLDSDGSFFLYSKLTVDKSRWQQGNVFSCSVMHEALHNRYTQKSLSLSP
heavy 2: B1 heavy 1 with Y232L, W234G, S237D, A296S, A328L, I330E, K354D, R433H, K437E
light: DIVMTQSPLSLPVTPGEPASISCQASESLVHSNRNTYLHWYLQKPGQSPQLLIYKVSNRFSGVPDRFSGSGSGTDFTLKISRVEAEDVGVYYCSQNTHVPPTFGQGTKVEIERTVAAPSVFIFPPSDEQLKSGTASVVCLLNNFYPREAKVQWKVDNALQSGNSQESVTEQDSKDSTYSLSSTLTLSKADYEKHKVYACEVTHQGLSSPVTKSFNRGEC
notes: L234Y/G236W/S298A in one H chain, S239D/A330L/I332E in the other
B2: GpH7-A53/GpH7-B78/GpL16-k0 (antibody, human IgG1, kappa)
heavy 1: B1 heavy 1 with Y232L, W234G, S237D, A296S
heavy 2: B1 heavy 1 with Y232L, W234G, S237D, A296S, A328L, I330E, K354D, R433H, K437E
light: B1 light
notes: S239D in one H chain, S239D/A330L/I332E in the other
B3: H240-Kn120/H240-Hl068/L73-k0 (antibody, human IgG1, kappa)
heavy 1: QDQLVQSGAEVKKPGASVKVSCKASGFNIKDTYIQWVRQAPGQGLEWMGRIDPLRKQTKYREKFEGRVTITADTSTNTAYMELSSLRSEDTAVYYCVRSGREFDYWGQGTLVTVSSASTKGPSVFPLAPSSKSTSGGTAALGCLVKDYFPEPVTVSWNSGALTSGVHTFPAVLQSSGLYSLSSVVTVPSSSLGTQTYICNVNHKPSNTKVDKKVEPKSCDKTHTCPPCPAPEYYWGPMVFLFPPKPKDTLMISRTPEVTCVVVDVSDEDPEVKFNWYVDGVEVHNAKTKPREEQYNATYRVVSVLTVLHQDWLNGKEYKCKVSNKDLPAPIEKTISKAKGQPREPQVCTLPPSRDELTKNQVSLWCLVKGFYPSDIAVEWESNGQPENNYKTTPPVLDSDGSFFLYSKLTVDKSRWQQGNVFSCSVMHEALHNHYTQKSLSLSP
heavy 2: QDQLVQSGAEVKKPGASVKVSCKASGFNIKDTYIQWVRQAPGQGLEWMGRIDPLRKQTKYREKFEGRVTITADTSTNTAYMELSSLRSEDTAVYYCVRSGREFDYWGQGTLVTVSSASTKGPSVFPLAPSSKSTSGGTAALGCLVKDYFPEPVTVSWNSGALTSGVHTFPAVLQSSGLYSLSSVVTVPSSSLGTQTYICNVNHKPSNTKVDKKVEPKSCDKTHTCPPCPAPELLGGPSVFLFPPKPKDTLMISRTPEVTCVVVDVSHEEPEVKFNWYVDGVEVHNAKTKPREEQYNSTYRVVSVLTVLHQDWLNGKEYKCKVSNDALPKPIEETISKAKGQPREPQVYTLPPSRCELTKNQVSLSCAVKGFYPSDIAVEWESNGQPENNYKTTPPVLDSDGSFFLVSKLTVDKSRWQQGNVFSCSVMHEALHNHYTQKSLSLSP
light: DIQMTQSPSSLSASVGDRVTITCRASQDIHKYIAWYQQKPGQAPRLLIQYTSTLQPGVPSRFSGSGSGTDYTFTISSLQPEDIATYYCLQYEQLRTFGGGTKVEIKRTVAAPSVFIFPPSDEQLKSGTASVVCLLNNFYPREAKVQWKVDNALQSGNSQESVTEQDSKDSTYSLSSTLTLSKADYEKHKVYACEVTHQGLSSPVTKSFNRGEC
notes: Heterodimerized (knobs-into-holes) anti-epiregulin IgG1 antibody
B4: H240-Kn120/H240-Hl174/L73-k0 (antibody, human IgG1, kappa)
heavy 1: B3 heavy 1
heavy 2: B3 heavy 2 with I331E
light: B3 light
notes: Heterodimerized anti-epiregulin IgG1 antibody; I332E in H240-Hl068
B5: H240-Kn120/H240-Hl170/L73-k0 (antibody, human IgG1, kappa)
heavy 1: B3 heavy 1
heavy 2: B3 heavy 2 with L327A
light: B3 light
notes: Heterodimerized anti-epiregulin IgG1 antibody; L328A in H240-Hl068
B6: H240-Kn120/H240-Hl182/L73-k0 (antibody, human IgG1, kappa)
heavy 1: B3 heavy 1
heavy 2: B3 heavy 2 with A230H
light: B3 light
notes: Heterodimerized anti-epiregulin IgG1 antibody; A231H in H240-Hl068
B7: H240-Kn120/H240-Hl150/L73-k0 (antibody, human IgG1, kappa)
heavy 1: B3 heavy 1
heavy 2: B3 heavy 2 with I331T
light: B3 light
notes: Heterodimerized anti-epiregulin IgG1 antibody; I332T in H240-Hl068
B8: GpH7-A48/GpH7-B3-20-08L/GpL16-k0 (antibody, human IgG1, kappa)
heavy 1: B1 heavy 1 with Y232L, W234G, A296S, P327R
heavy 2: not shown
light: B1 light
notes: Anti-glypican-3 IgG1 heterodimer; P329R in H1, A330L in H2
B9: GpH7-A48/GpH7-B3-22-10E/GpL16-k0 (antibody, human IgG1, kappa)
heavy 1: B1 heavy 1 with Y232L, W234G, A296S, P327R
heavy 2: not shown
light: B1 light
notes: Anti-glypican-3 IgG1 heterodimer; P329R in H1, I332E in H2

Molecular target: FcγRIIIa F (human, UniProt P08637 17-208)
Experiment: SPR (Biacore), KD

Chain of FcγRIIIa F (P08637 17-208): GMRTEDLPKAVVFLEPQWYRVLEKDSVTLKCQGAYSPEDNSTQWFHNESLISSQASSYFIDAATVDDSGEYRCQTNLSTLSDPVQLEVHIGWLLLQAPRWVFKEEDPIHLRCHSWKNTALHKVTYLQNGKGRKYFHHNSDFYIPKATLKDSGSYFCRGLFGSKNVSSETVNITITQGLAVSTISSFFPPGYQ

Binder	fold FcγRIIIa binding against GpH7-A5/GpH7-B78/GpL16-k0	fold decrease of FcγRIIIa-binding activity against GpH7-A57/GpH7-B78/GpL16-k0
B1	≥ 10 times	–
B2	–	1.8 times

Molecular target: T4, FcgRIa (human, UniProt P12314 16-292)
T4 construct: extracellular domain; Soluble extracellular domain expressed in FreeStyle293 cells; also called FcγRIa; FcγRI; not shown: His tag attached to the C terminus
Experiment: SPR (Biacore); KD of H240-Kn120/H240-Hl068/L73-k0 divided by KD of the sample
Procedure: (§1) Analysis of interaction between objective antibody and the FcγR was carried out using Biacore T100 (GE Healthcare), Biacore T200, Biacore A100, and Biacore 4000. HBS-EP+ (GE Healthcare) was used as the running buffer, and the measurement temperature was set to 25° C. Chips produced by immobilizing the antigen peptide by the amine coupling method to a Series S sensor Chip CM5 (GE Healthcare), chips produced by allowing preliminarily biotinylated antigen peptides to interact with and immobilize onto a Series S Sensor Chip SA (certified) (GE Healthcare), chips produced by immobilizing Protein L (ACTIGEN, BioVision) to Series S Sencor Chip CM5 (GE Healthcare), or chips produced by immobilizing Protein A/G (Thermo Scientific) to Series S Sencor Chip CM5 (GE Healthcare) were used. Antibodies of interest were captured onto these chips, and allowed to interact to each FcγR diluted with running buffer. To regenerate and repeatedly use the chip, the antibodies captured onto the chip were washed off by reacting 10 mM glycine-HCl, pH 1.5.

T4 sequence (P12314 16-292): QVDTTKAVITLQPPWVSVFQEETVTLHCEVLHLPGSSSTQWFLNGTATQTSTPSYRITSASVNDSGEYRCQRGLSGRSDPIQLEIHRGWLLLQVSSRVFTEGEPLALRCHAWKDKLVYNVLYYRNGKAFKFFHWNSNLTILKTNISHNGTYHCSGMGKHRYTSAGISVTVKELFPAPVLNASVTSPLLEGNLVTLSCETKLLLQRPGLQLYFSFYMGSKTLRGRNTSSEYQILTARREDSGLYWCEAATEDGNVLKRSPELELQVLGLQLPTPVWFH

Binder	relative KD
B3	1
B4	1.1
B5	0.8
B6	0.9
B7	0.4

Molecular target: T1, FcgRIIaR
Experiment: as above
Procedure: as §1

Binder	relative KD
B3	1
B4	0.7
B5	2.3
B6	0.5
B7	1

Molecular target: T2, FcgRIIaH
Experiment: as above
Procedure: as §1

Binder	relative KD
B3	1
B4	0.7
B5	2.3
B6	0.5
B7	1.2

Molecular target: T3, FcgRIIb
Experiment: as above
Procedure: as §1

Binder	relative KD
B3	1
B4	1.2
B5	2.2
B6	0.6
B7	1.5

Molecular target: T5, FcgRIIIaF (human, UniProt P08637 17-208)
T5 construct: extracellular domain; Allotype F158; also called FcγRIIIa F; not shown: His tag attached to the C terminus
Experiment: as above
Procedure: as §1

T5 sequence (P08637 17-208): as the sequence (P08637 17-208) above

Binder	relative KD
B3	1
B4	4.3
B5	0.6
B6	0.7
B7	0.7

Molecular target: T6, FcgRIIIaV (human, UniProt P08637 17-208)
T6 construct: extracellular domain; Allotype V158; also called FcγRIIIa V; not shown: His tag attached to the C terminus
Experiment: as above
Procedure: as §1

T6 sequence (P08637 17-208 F176V limits assumed): as the sequence (P08637 17-208) above, with F160V counted along it

Binder	relative KD
B3	1
B4	10
B5	0.4
B6	1.2
B7	0.6

Molecular target: T7, FcγRIIIa (human, UniProt P08637 17-208)
T7 construct: extracellular domain; also called FcgRIIIa; CD16A; not shown: His tag attached to the C terminus
Experiment: SPR (Biacore), antibody captured on antigen-peptide chip, FcγR as analyte; relative binding amount
Source text: The expression vectors for the respective H chains were combined in a way that each of the alterations L234Y, G236W, S298A, S239D, A330L, and I332E is present in the same H chain as P329R or in the different H chain from P329R, and the expression vector GpL16-k0 for the L chain was combined with them. Antibodies of interest were expressed and prepared according to the method described in Reference Example 1. The prepared antibodies were used to assay the FcγRIIIa-binding activity. The result of assessment using P329R on the direction of FcγRIIIa recognition by L234Y, G236W, S298A, S239D, A330L, and I332E is summarized in Table 12.
Analysis of interaction between objective antibody and the FcγR was carried out using Biacore T100 (GE Healthcare). HBS-EP+ (GE Healthcare) was used as the running buffer, and the measurement temperature was set to 25° C. Chips produced by immobilizing the antigen peptide by the amine coupling method to a Series S Sencor Chip CM5 (GE Healthcare), or alternatively, chips produced by allowing preliminarily biotinylated antigen peptides to interact with and immobilize onto a Series S Sensor Chip SA (certified) (GE Healthcare) were used. Antibodies of interest were captured onto an antigen peptide-immobilized chip, and allowed to interact to each FcγR diluted with running buffer. To regenerate and repeatedly use the chip, the antibodies captured on the chip were washed off by reacting 10 mM glycine-HCl, pH 1.5.

T7 sequence (P08637 17-208): as the sequence (P08637 17-208) above

Binder	FcγRIIIa BINDING ACTIVITY (relative)
B8	60 relative, GpH7-A5/GpH7-B3/GpL16-k0 = 100
B9	189 relative, GpH7-A5/GpH7-B3/GpL16-k0 = 100
